Values quoted from earlier work in patent publication US20230129812A1, “COMPOSITIONS AND METHODS FOR TREATING PULMONARY HYPERTENSION” (Acceleron Pharma Inc., priority 2020, published 2023).

Columns and labels:
[1] = biological target: T1, ActA (Homo sapiens, UniProt P08476); parameters: key to ActA binding relative to WT: *: No observed binding; −−: <⅕ WT binding; −: ~½ WT binding; +: WT; ++: <2x increased binding; +++: ~5x increased binding; ++++: ~10x increased binding; +++++: ~40x increased binding; details: cited from earlier work; for ActA binding relative to WT: Table 11, reproduced from WO2006/012627; for ratio of activin A (ActA) binding to GDF11 binding, relative to the wild-type K74 molecule: WO2006/012627
T1 sequence (P08476 311-426): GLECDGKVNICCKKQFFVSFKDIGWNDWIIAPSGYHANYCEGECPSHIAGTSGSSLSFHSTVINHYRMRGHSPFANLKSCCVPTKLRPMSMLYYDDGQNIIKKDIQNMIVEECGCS

[2] = biological target: T2, GDF11 (Homo sapiens, UniProt O95390); parameters: key: *: No observed binding; −−: <⅕ WT binding; −: ~½ WT binding; +: WT; ++: <2x increased binding; +++: ~5x increased binding; ++++: ~10x increased binding; +++++: ~40x increased binding; details: Table 11, reproduced from WO2006/012627; cited from earlier work
T2 sequence (O95390 299-407): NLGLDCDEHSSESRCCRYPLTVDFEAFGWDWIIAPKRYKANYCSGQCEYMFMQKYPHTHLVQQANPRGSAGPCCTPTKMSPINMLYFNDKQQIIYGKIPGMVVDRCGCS

B1: K74Y: soluble ActRIIB-Fc variant, as reported in WO2006/012627 (protein)
chain: SGRGEAETRECIYYNANWELERTNQSGLERCEGEQDKRLHCYASWANSSGTIELVYKGCWLDDFNCYDRQECVATEENPQVYFCCCEGNFCNERFTHLPEA
modifications: left off: a dimerising Fc or GST
- ActA binding relative to WT [1]: *
- ratio of activin A (ActA) binding to GDF11 binding, relative to the wild-type K74 molecule [1]: decrease
- GDF11 binding relative to WT [2]: −− (<⅕ WT binding)

B2: K74F: soluble ActRIIB-Fc variant, as reported in WO2006/012627 (protein)
chain: SGRGEAETRECIYYNANWELERTNQSGLERCEGEQDKRLHCYASWANSSGTIELVFKGCWLDDFNCYDRQECVATEENPQVYFCCCEGNFCNERFTHLPEA
modifications: left off: a dimerising Fc or GST
- ActA binding relative to WT [1]: *
- ratio of activin A (ActA) binding to GDF11 binding, relative to the wild-type K74 molecule [1]: decrease
- GDF11 binding relative to WT [2]: −− (<⅕ WT binding)

B3: K74I: soluble ActRIIB-Fc variant, as reported in WO2006/012627 (protein)
chain: SGRGEAETRECIYYNANWELERTNQSGLERCEGEQDKRLHCYASWANSSGTIELVIKGCWLDDFNCYDRQECVATEENPQVYFCCCEGNFCNERFTHLPEA
modifications: left off: a dimerising Fc or GST
- ActA binding relative to WT [1]: *
- ratio of activin A (ActA) binding to GDF11 binding, relative to the wild-type K74 molecule [1]: decrease
- GDF11 binding relative to WT [2]: −− (<⅕ WT binding)

B4: D80I: soluble ActRIIB-Fc variant, as reported in WO2006/012627 (protein)
chain: SGRGEAETRECIYYNANWELERTNQSGLERCEGEQDKRLHCYASWANSSGTIELVKKGCWLIDFNCYDRQECVATEENPQVYFCCCEGNFCNERFTHLPEA
modifications: left off: a dimerising Fc or GST
- ActA binding relative to WT [1]: *
- ratio of activin A (ActA) binding to GDF11 binding, relative to the wild-type K74 molecule [1]: decrease
- GDF11 binding relative to WT [2]: −− (<⅕ WT binding)

B5: +15tail: soluble ActRIIB-Fc variant with the 15 amino acid tail, as reported in WO2006/012627 (protein)
chain: SGRGEAETRECIYYNANWELERTNQSGLERCEGEQDKRLHCYASWANSSGTIELVKKGCWLDDFNCYDRQECVATEENPQVYFCCCEGNFCNERFTHLPEAGGPEVTYEPPPTAPT
modifications: left off: a dimerising Fc or GST
- ActA binding relative to WT [1]: (+++) (~5x increased binding)
- GDF11 binding relative to WT [2]: (++++) (~10x increased binding)

B6: E37A: soluble ActRIIB-Fc variant, as reported in WO2006/012627 (protein)
chain: SGRGEAETRECIYYNANWALERTNQSGLERCEGEQDKRLHCYASWANSSGTIELVKKGCWLDDFNCYDRQECVATEENPQVYFCCCEGNFCNERFTHLPEA
modifications: left off: a dimerising Fc or GST
- ActA binding relative to WT [1]: *
- GDF11 binding relative to WT [2]: *

B7: K74A: soluble ActRIIB-Fc variant, as reported in WO2006/012627 (protein)
chain: SGRGEAETRECIYYNANWELERTNQSGLERCEGEQDKRLHCYASWANSSGTIELVAKGCWLDDFNCYDRQECVATEENPQVYFCCCEGNFCNERFTHLPEA
modifications: left off: a dimerising Fc or GST
- ActA binding relative to WT [1]: +++++ (~40x increased binding)

B8: WT (64R): soluble ActRIIB-Fc, wild type with 64R, as reported in WO2006/012627 (protein)
chain: SGRGEAETRECIYYNANWELERTNQSGLERCEGEQDKRLHCYASWRNSSGTIELVKKGCWLDDFNCYDRQECVATEENPQVYFCCCEGNFCNERFTHLPEA
modifications: left off: a dimerising Fc or GST
- GDF11 binding relative to WT [2]: (+++) (~5x increased binding)
